The results in this text go back to publication PMC4041471, “Cas6 specificity and CRISPR RNA loading in a complex CRISPR-Cas system” (Nucleic Acids Research, 2014).

Series [1] addresses Recombinant Cas6-1 (Sso1437) (S. solfataricus) (UniProt Q97Y96). The series is described as follows: SEC; recombinant Cas6-1 alone on Superdex 200 in GF buffer (20 mM sodium phosphate pH 7.5, 250 mM NaCl, 5 mM EDTA, 0.5 mM DTT).
Series [2] deals with the molecule itself. The series is described as follows: SEC; S. solfataricus cell lysate on Superdex 200 in GF buffer (20 mM sodium phosphate pH 7.5, 250 mM NaCl, 5 mM EDTA, 0.5 mM DTT); 2 ml fractions analysed by western blotting.
Series [3] concerns the target T1, Cas6-1 (Saccharolobus/Sulfolobus solfataricus P2, UniProt Q97Y96 1-287).
T1 sequence: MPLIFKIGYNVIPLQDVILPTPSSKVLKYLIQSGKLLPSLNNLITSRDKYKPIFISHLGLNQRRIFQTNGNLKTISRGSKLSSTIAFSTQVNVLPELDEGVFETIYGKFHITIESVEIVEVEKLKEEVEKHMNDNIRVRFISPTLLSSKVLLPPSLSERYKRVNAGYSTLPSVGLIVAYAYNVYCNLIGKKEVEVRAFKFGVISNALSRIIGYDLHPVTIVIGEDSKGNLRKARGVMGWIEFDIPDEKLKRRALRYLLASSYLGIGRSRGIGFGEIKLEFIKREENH
The series is described as follows: fluorescence quenching; 25 C; apparent Kd, fit with variable Hill coefficient; partial cleavage not ruled out; EMSA: NR buffer (composition not in material) with 2 uM BSA, 0.5 nM RNA (legend: 1 nM), 15 min at 20 C, 6% native PAGE in 1x TBE; fluorescence quenching at 25 C, buffer not in material. The note with it: protein: recombinant; chain copies: 2; label: 5'-FAM. A general note: Mobility shift assays separate free from complexed probe on a gel.

In series [4] the target is T1, Cas6-1. The series is described as follows: fluorescence quenching; 25 C; apparent Kd, fit with variable Hill coefficient; EMSA: NR buffer (composition not in material) with 2 uM BSA, 0.5 nM RNA (legend: 1 nM), 15 min at 20 C, 6% native PAGE in 1x TBE; fluorescence quenching at 25 C, buffer not in material. The following applies: protein: recombinant; chain copies: 2; label: 5'-FAM.

Series [5] deals with T1, Cas6-1. The experiment in a line: EMSA; 20 C; apparent Kd, no intermediate bands; EMSA: NR buffer (composition not in material) with 2 uM BSA, 0.5 nM RNA (legend: 1 nM), 15 min at 20 C, 6% native PAGE in 1x TBE; fluorescence quenching at 25 C, buffer not in material. The note with it: protein: recombinant; chain copies: 2; label: 5'-32P.
Series [6] concerns the target T1, Cas6-1. The series is described as follows: EMSA; 20 C; apparent Kd, intermediate shifted species; EMSA: NR buffer (composition not in material) with 2 uM BSA, 0.5 nM RNA (legend: 1 nM), 15 min at 20 C, 6% native PAGE in 1x TBE; fluorescence quenching at 25 C, buffer not in material. The note with it: protein: recombinant; chain copies: 2; label: 5'-32P.

What is called stoichiometry N is the number of molecules, sites or subunits per partner or assembly. Regarding “Recombinant Cas6-1 (Sso1437) (from UniProt Q97Y96 1-287) (enzyme)”, the stoichiometry N in series [1] was determined as 2.

B1: Cmr7 (Sso1986) subunit of CMR, free protein in the lysate (natural protein, UniProt Q97WX5 1-197, looked up)
chain: MTSGAGWEEQVFLPITNSISSEDNNQIKIGSSVSIEYNQNGQHVSQIDDKGLHNILVLTGYAIDESTGELVPTFDPCDYVKGILISGKILKGNHFKIIGIPSNKLYIIRKKDVHGNITFSLPIKNFNTGTYQVDLRDKVTSFVSLDRDVAKTIVDNVLAKIYAKIYNSLNKEQKDKLYRDVEEIFNYYSIKSLKSNP
notes: Cmr7 (Sso1986), subunit of the CMR complex of Sulfolobus solfataricus; also called dimeric Cmr7 protein; source: endogenous, S. solfataricus lysate
With B1, in series [2], the “stoichiometry N” value worked out at 2.

Take UGAUAAUCUCUUAUAGAAUUGAAAG (ssRNA) [FAM-CD repeat RNA]: in series [3], the Kd is ~14 nM.

As for UGAUAAUCUCUUAUAGA (ssRNA, 3'-phosphate) [FAM-CDproduct RNA], the Kd in series [4] is ~14 nM.

For GAUUAAUCCCAAAAGGAAUUGAAAG (ssRNA) [AB-repeat RNA (32P)], the Kd in series [5] was 350 nM.

For GAUAAUCUCUUAUAGAAUUGAAAG (ssRNA) [CD-repeat RNA (32P)], the Kd in series [6] was ~16 nM.
